# Laboratory results: the DeepSol protein solubility set
# Test: soluble on expression in E. coli; label from the status in PepcDB or PDB records
row,Sequence,soluble on expression in E. coli
1,MCFHNSMSAKAIKVAARYGRQSDVVEIYQSILDEQYHVNAFTFPRYPIITSSDEVQVFNWGLIPFWVRSEEDATEIRKMTLNARADTIFEKPSFREPIMKKRCIVPSTGYFEWRHEGANKIPYYIYVKDEPIFSMAGIYDRWLDKDTGEEHETFSIITTDTNSLTDYIDNTKHRMPAILTQEEEEKWLNPSLSKAEIASLLKPFDTEKMDAYVIRNDFLKKSPNDPTIVQRALEHHHHHH,soluble
2,QGMRAFLRVVETGNFTRASASLNMPKATVTNLIQGLEAHLRTKLLNRTTRRVLVTPDGALYYERAARLLSDLDELDGSLSTAQSLPKGRLRVETASAFANLVIIPALPEFHKKYPDIQIDLGVSDRTIDYLAENVDCAIRAGTLTDQSLIARRITEMKFVACASRDFLERHPVPQHPSDLEKNCYVVGYFLPKTGQQMPFHFRRGNEEIEVSGRYTMAANESTTYLAAARAGLGVIQAPLFMVREDLRNGTMVPVLPDWQVEPMPIYLVYPPNRHLSSRLRVFADWVVKVMAQSQNGEGS,soluble
3,MGSDKIHHHHHHMQLSKAAEMCYEITNSYLHIDQKSQIIASTQEAIRLTRKYLLSEIFVRWSPLNGEISFSYNGGKDCQVLLLLYLSCLWEYFFIKAQNSQFDFEFQSFPMQRLPTVFIDQEETFPTLENFVLETSERYCLSLYESQRQSGASVNMADAFRDFIKIYPETEAIVIGIRHTDPFGEALKPIQRTDSNWPDFMRLQPLLHWDLTNIWSFLLYSNEPICGLYGKGFTSIGGINNSLPNPHLRKDSNNPALHFEWEIIHAFGKDAEGERSSAINTSPISVVDKERFSKYHDNYYPGWYLVDDTLERAGRIKN,not soluble
4,MNSKCHCVILNDGNFIPVLGFGTALPLECPKSKAKELTKIAIDAGFHHFDSASVYNTEDHVGEAIRSKIADGTVRREDIFYTSKVWCTSLHPELVRASLERSLQKLQFDYVDLYLIHYPMALKPGEENFPVDEHGKLIFDRVDLCATWEAMEKCKDAGLTKSIGVSNFNYRQLEMILNKPGLKYKPVCNQVECHPYLNQMKLLDFCKSKDIVLVAYGVLGTQRDGGWVDQNSPVLLDEPVLGSMAKKYNRTPALIALRYQLQRGIVVLNTSLKEERIKENMQVFEFQLSSEDMKVLDGLNRNMRYIPAAIFKGHPNWPFLDEY,soluble
5,MNERIFRENTRPVQVGNLTIGGSEELTIQSMTTTKTHDVEATVAEIHRLEEVGCQIVRVACPDERAANALSAIKKRIHIPLVADIHFDYRLALKAIDAGVDKIRINPGNIGRRDRVEKVVNAAKAKNIPIRIGVNAGSLEKKIIQKYGYPTAEGMVESALAHIKILEDLDFYDIIVSLKASDVNLAIEAYDKASRAFNYPLHLGITESGTQFAGGIKSAAGLGAILSLGIGNTLRVSLSADPVEEIKVAREVLKSFGLSSNAAMLISCPTCGRIEIDLIRIANEVENYIATIKAPIKVAVLGCAVNGPGEAREADIGIAGSNGEGLLFRHGKIIRKVPEAIMVEELKKEIDILAEEYFEKKTDLESLR,not soluble
6,MATKKCINGHQYDSSIYGDNCPFCPSSHSTRVLDDDTTTGKTQVLGGNMNAETDTIDLGKSGQNNPGGATVIRHVNPTGGTGMASDNRRLVGLLVSYDQNPMGEVYKIYEGRNVIGRAATSDIPIPGDSNMSSQHLLILYREAEGIFWAADQNSSNGTYINGTFVGDRVQLYTNDVIVLGATKMIFLAIPQ,not soluble
7,MSLSMDTVNYRPSAYPAISLIEADYRQFAFERHYHLDIHIGLITQGVQRFYHQGAWHQVGQGGVVLMSPDELHDGHAHSNTGYQVQVFSIEPEWLQQTLEANQIEQVIGFEQLIVQDPTLFHSLQQLHHLLRQDNLSQLAKDCLPYQGFAPLLERYSYLKQPTVKPLGQHNLALLKEWVLSQLDQPIRLEQLAQLCQLSPTQFQRHFKAQTGLTPYAWLRRLRLEQAMKLLQSGKPGTDVAYQVGFYDQAHFSKAFKATYGLSPSLITRFSEGHHHHHH,not soluble
8,MSEDGLKVSVLASGSTGNVTYIETPERKVLVDAGLSGKKIAGLMDSVGRDISEVDSLFVTHEHSDHIQSVGVLARKYGIDIYANQGTWDAIGGKIGKVPTEQKFIFDPNTTKSLDDLDIESFSVSHDAAEPQFYEFHHAGKSFVILTDTGYVSDRIAGTIRNADGYLFEVNHDTEMLRMGGYPWPLKQRIMGDHGHLSNEDGANALMDVIGNRTKKIYLGHLSLHNNMKELAHLTVTSMMQNHDLAVGHDFEILDTDHKIADPLTLILEHHHHHH,soluble
9,MNTDILIGAIAGDIIGSYYEFVPIKSIDFPLFNGSSSHFTDDTIMTIANADWLLTGDSLLGIMQDYGNRYHSSYGSMFYEWLRADNPQPYNSWGNGSAMRVSPIDWAFNTLEETLEAAKQSAEVTHNHPEGIKGAQATAACIYLARTGKSKQEIKEYVETTFGYNLNRTCDDIRPTYHFNESCQGTIPESIIAFLESTDYESAIRLTISLGGDADTMGAITGGIAEAYYKEIPQYIIDEVLKRLSEEFIDIMQRFYRMFISS,not soluble
10,MNQTDTSPIRLRRSWNTSEIEALFDEHAGRIDPRIYTDEDLYQLELERVFARSWLLLGHETQIRKPGDYITTYMGEDPVVVVRQKDASIAVFLNQCRHRGMRICRADAGNAKAFTCSYHGWAYDTAGNLVNVPYEAESFACLNKKEWSPLKARVETYKGLIFANWDENAVDLDTYLGEAKFYMDHMLDRTEAGTEAIPGVQKWVIPCNWKFAAEQFCSDMYHAGTTSHLSGILAGLPEDLEMADLAPPTVGKQYRASWGGHGSGFYVGDPNLMLAIMGPKVTSYWTEGPASEKAAERLGSVERGSKLMVEHMTVFPTCSFLPGINTVRTWHPRGPNEVEVWAFTVVDADAPDDIKEEFRRQTLRTFSAGGVFEQDDGENWVEIQHILRGHKARSRPFNAEMSMDQTVDNDPVYPGRISNNVYSEEAARGLYAHWLRMMTSPDWDALKATR,soluble
11,MRLEECNILFELLTEIQDEAGSMEKIVHKTLQRLSQLLAADRCSMFICRSRNGIPEVATRLLNVTPTSKFEDNLVNPDKETVFPLDIGIAGWVAHTKKFFNIPDVKKNNHFSDYLDKKTGYTTVNMMAIPITQGKEVLAVVMALNKLNASEFSKEDEEVFKKYLNFISLVLRLEHHHHHH,soluble
12,MDAALRRLQTFLSTIPQCDHTKYEGHYQQVFYIIFSLLGYYVDVEVRTSRGRVDVVLRTEATLYVMELKLDKNATVAMEQINLKNYPERFALCGLPVVKVAVNFDSESGTLGDWMIEK,not soluble
13,MKILITGGSGLVGRQLTKSLQAQNIEVTWLSRTKGVKDGIKSFLWDYKKGYIEEEAFDGVTHIVHLAGAGVFDKRWTKSYKKEIFDSRILTTKLLVEKALKLNGLEAFISGSAIGIYGNSMNSVPLTETALYGNDYLAQVTKEWEAATVPLENSSIRLAIIRTGIVLSEHGGALPAMINPIKAYIGSPLASGEQIISWIHIDDLCRIFSKAITDDAIKGTYNGVAPEPVTNKVLTQTAAAILHKPLVMPNVPSFALNILLGKEKAASVVEGIAVSAEKISATGFTFTYPYIKKALSDLLLEHHHHHH,not soluble
14,MLIEGANSHGSGILLQRHGNTYVILTAYHVIEKGGQYTVKTVDGQRYAVRPSSIRRLPSVDLATLEIESNRDYTLATLGNSGEAVEGMPVFVAGFPAQEASVLGGIYQFTEGRLTANASRPIQDGYALVYSNPTLPGMSGGPVLDENGRLIGIHGSADIASTLVQEGSGASTVFVKRGFNLGIPIHTYLGLATPSRQTTVLPALASMKAADYFLAAEVAFRRKNFAAAIENYSQAIARNPNYSEAYLGRAVAQIFALVPNQDFDQLGEELGTKYLSRLTQGNPLLKDAFPPNPPTPLLETFMRTMAERPGTIQPDIAKAIALNPQYTEAYGVSSFLNLLLGNFGNAIAESERALALRPNNSDLQMIHSLALFLSGDFRRSIAVFDRLITANPQNTDYHLLRGVAAFMMGDYALSRPSWTALTQLTPRNPMPFALRGVTYLLEENFKASLPDLRQAAELYRQQGDMQSYNQMMQAIRQIESRLEHHHHHH,not soluble
15,ENYLSIEKRLYENLAQESSHSASRLQFLLEHAQANTQGLSDFIGLLADKDDINNPEKLKTVLTNRIQRNPDFFGSAIAFKPNTFPNKKLFSPYVYRSGSGFNYLDIGADGYDYTDGNWDWWSKAINQVGGYWSKAYFDEGAGNVLMITYAVPFGVQPDYFGVTTVDLALDRLPEQLGIAPSRLVVLDDQGRLIFHSDKEKVLAASSSGWLDKQNIKNIAFATLLNDGQAGQASFVDDKGTVYLASVAEVAKLKWRVVVMVPKHELFASLLDDIA,soluble
16,MSLSSQPRFIHLRTHTDFSMIDSIVKVKPLVKACAANEMVAMGLTDFTNFCGVVSFYSEMLSSGMKPIIGADVKVKSPLCGDEYFDLTLLAKNNEGYRNITLLLSKAYQRGYNDLPYIDQDWLIEHRDGVIILSGGTQGDVGKKLLKENVAEIESAVAFYQEFFADHFYLALSRTGRPNEERYIQAALKLAERCDLPLVATNDVMFLNTEDFEAHEIRVAIHDGYTLDDPKRPKCYTSQQYFRSEEDMCKLFADEGHHHHHH,soluble
17,MGSDKIHHHHHHMINKELTAATFMEVIAEDNRFIYDGIDSNFEPELVFLEFFEALLSFAFICVTDQMTKSYTNVPADDVSGNKHETIYTILNQDAQNKSPSAVMSHESDAAHSDSARSSSSKLELSPDVNKIRKSEPKIKKSVSHERVSKMNFKLTGKGITFFSSESKKYERPKDDREEEFNTWVNNTYVFFVNTLFHAYKREEAIKEKIRADRLRSTAQAQQRKMEDDELEARLNIFILREEEAKRHDYEVDITVLKEPADVSSSHLILDPPKEDVTVSPSSKTITSKKKKK,not soluble
18,MIKIAPSILSADFSKLGEEIKDVEKGGADYIHVDVMDGHFVPNITIGPLIVEAIRPITSLPLDVHLMIENPDNYIPTFAKAGADIITVHVEACPHLHRTIQLIKSHGIKAGVVLNPHTPVSVIEHVLEDIDMVLLMTVNPGFGGQKFIHSVLPKIKQVAEMVKERNLEVEIEVDGGVNAETARLCVEAGANVLVAGSAVYNQKDRGEAIRVIRG,soluble
19,MGSDKIHHHHHHMRGIVCVHKFCSRFSRTAYFTYGWMMNIELISLLKGNMGLTLTSELAADICVAAYRMETLAQSRDIAQIKPRYNGRIVFAVERIEDITEEIKHLHRTHWNETEGHRHRLPFQPDYETFIRYEQAGRYLLFTVRSEGKLLGNCAMYLDKSAHTQTLIATEDTLYLLPEARRGTTAKRFVRYVENAMKLLGVREINITVKTVNKAARFFRLLGYRHVENGLTKILEIENV,not soluble
20,MDQKTRIVAAVIKGVKLPPRFRLRLLKEDPVRLELSLTPAYGKDPVTVGLVESLDLVARRDREGRIPRDLQGTWDWTVRHGKVSTGGWNPYLKEALQTMFETGLPAIVFEELTGEEYHPVDGTRHVR,not soluble
21,MEQYYGTGRRKEAVARVFLRPGNGKVTVNGQDFNEYFQGLVRAVAALEPLRAVDALGHFDAYITVRGGGKSGQIDAIKLGIARALVQYNPDYRAKLKPLGFLTRDARVVERKKYGKHKARRAPQYSKR,soluble
22,MKQITIASRESKLALWQTNFVKNRIQLELNIPCEISTMKTQGDIILDQPLNKIGGKALFMKELEVAMLSNKADIAVHSLKDVPYQLPQGFCLAGFMPREDPRDAFVSNKYNSIDDLPKGAVVGTSSLRRKAQLLHYRDDLEIRDLRGNIQTRLSKLDNGDYDAIILASAGLIRLELVERITQFIPVEISLPAVGQGIVVIEALERDNDLLEKIQKLNCRESSRVATAERAFNQELKGGCHVAIGAYAELDNNQITLMAMVASSDGKKILKRKMIGDDPTKLGKLLAQEMIALGAYKILES,not soluble
23,LKVGFFKRNLKEKIEAGRGVPNGIPAEDSEQLASGQEAGDPGCLKPLHEKDSESGGGKDG,soluble
